Key:
[1] = target: mouse anti-CEA monoclonal antibody 8019; experiment: RIA, labeled Ab2 (3H1) on 8019-coated plates, no inhibitor
[2] = target: mouse anti-CEA monoclonal antibody 8019; experiment: competition: Ab2 blocks binding of 8019 to CEA on MCF-7 cells
[3] = target: mouse anti-CEA monoclonal antibody 8019; experiment: competition RIA, labeled Ab2 (3H1) on 8019-coated plates, 250 ng unlabeled 3H1
[4] = target: mouse anti-CEA monoclonal antibody 8019; experiment: plate RIA, inhibition of radiolabeled 8019 binding to semipurified CEA, 25 ng 3H1
[5] = target: mouse anti-CEA monoclonal antibody 8019; experiment: competition RIA, labeled Ab2 (3H1) on 8019-coated plates with 0.125 µg unlabeled 3H1
[6] = target: mouse anti-CEA monoclonal antibody 8019; experiment: competition RIA, labeled Ab2 (3H1) bound to 8019-coated plates with 0.125 µg unlabeled 3H1

cpm Bound [1]: 12000 cpm
percent inhibition [2]: > 85%
percent inhibition [3]: > 90%
percent inhibition [4]: 100%
percent inhibition [5]: 97%
cpm Bound [6]: 439 cpm
B1: monoclonal anti-idiotype antibody 3H1 (antibody, V domains shown)
VH: EVQLQQSGPELVKPGASLKISCEASGYSLTAYTMNWVKQSHGKSLEWVGLINPFSGDTNYSQKFTGKATLTVDRSSSTAYMELLSLTSEDSAVYYCVITPVPYWYFDVWGAGTTVTVSS
VL: DIKMTQSPSSMYASLGERVTITCKASQDINGYLNWFQQEPGKSPKTLIYRANRLIDGVPSRFSGSGSGQVYSLTISSLEYEDMGTYYCLQFDEFPWMFGGGTKLEIK

From patent US7090842
